Assay results from patent US20220089698A1 (published 2022).
Residue numbers refer to the chain shown, from its start.

B1: 1.35.35-1 (antibody, human IgG1, kappa, V domains shown)
VH: QVQLVQSGAEVKKPGASVRVSCKASGYNIRDYFMHWWRQAPGQGLQWVGWINPKTGQPNNPRQFQGRVTMTRHASWDFDTFSFYMDLSRLRSDDTATYFCARQRTDYWDFDVWGQGTMVTVSS
VL: DIQMTQSPSSLSASVGDRVTITCQANGYLNWYQQKPGKAPKLLIYDGSNLETGVPSRFSGSRWGQEYTLTISSLQPEDIATYFCQVYEFVGPGTNLDIKR
B2: 1.36.35-1 (antibody, human IgG1, kappa, V domains shown)
VH: B1 VH with F83A
VL: B1 VL
B3: 1.1.36-1 (antibody, human IgG1, kappa)
heavy: QVQLLQSGAAVTKPGASVRVSCEASGYNIRDYFIHWWRQAPGQGLQWVGWINPKTGQPNNPRQFQGRVSLTRHASWDFDTFSFYMDLKALRSDDTAVYFCARQRSDYWDFDVWGSGTQVTVSSASTKGPSVFPLAPSSKSTSGGTAALGCLVKDYFPEPVTVSWNSGALTSGVHTFPAVLQSSGLYSLSSVVTVPSSSLGTQTYICNVNHKPSNTKVDKKVEPKSCDKTHTCPPCPAPELLAGPDVFLFPPKPKDTLMISRTPEVTCVVVDVSHEDPEVKFNWYVDGVEVHNAKTKPREEQYNSTYRVVSVLTVLHQDWLNGKEYKCKVSNKALPLPEEKTISKAKGQPREPQVYTLPPSREEMTKNQVSLTCLVKGFYPSDIAVEWESNGQPENNYKTTPPVLDSDGSFFLYSKLTVDKSRWQQGNVFSCSVLHEALHSHYTQKSLSLSPGK
light: DIQMTQSPSSLSASVGDRVTITCQANGYLNWYQQKPGKAPKLLIYDGSNLETGVPSRFSGSRWGQEYTLTISSLQPEDIATYFCQVYEFVTPGTNLDIKRTVAAPSVFIFPPSDEQLKSGTASVVCLLNNFYPREAKVQWKVDNALQSGNSQESVTEQDSKDSTYSLSSTLTLSKADYEKHKVYACEVTHQGLSSPVTKSFNRGEC
B4: 1.8.1-1 (antibody, human IgG1, kappa)
heavy: B3 heavy with L5V, A10E
light: DIQMTQSPSSLSASVGDTVTITCQANGYLNWYQQRRGKAPKLLIYDGSKLERGVPSRFSGRRWGQEYNLTINNLQPEDIATYFCQVYEFVVPGTRLDLKRTVAAPSVFIFPPSDEQLKSGTASVVCLLNNFYPREAKVQWKVDNALQSGNSQESVTEQDSKDSTYSLSSTLTLSKADYEKHKVYACEVTHQGLSSPVTKSFNRGEC
B5: 1.11.1-1 (antibody, human IgG1, kappa)
heavy: B3 heavy with I34M, F83A
light: B4 light
B6: 1.9.1-1 (antibody, human IgG1, kappa)
heavy: B3 heavy with L5V, A10E, T12K, E23K
light: B4 light
B7: 1.34.36-1 (antibody, human IgG1, kappa)
heavy: B3 heavy with L5V, A10E, T12K, E23K, S69T, S105T
light: B3 light
B8: 1.10.1-1 (antibody, human IgG1, kappa)
heavy: B3 heavy with I34M
light: B4 light
B9: 1.3.1-1 (antibody, human IgG1, kappa)
heavy: B3 heavy with Q3S
light: B4 light
B10: 1.6.1-1 (antibody, human IgG1, kappa)
heavy: B3 heavy with A10E
light: B4 light
B11: 1.2.1-1 (antibody, human IgG1, kappa)
heavy: B3 heavy with A10E, T12K, Q118M
light: B4 light
B12: 1.7.1-1 (antibody, human IgG1, kappa)
heavy: B3 heavy with A10E, T12K
light: B4 light
B13: 1.31.36-1 (antibody, human IgG1, kappa)
heavy: B3 heavy with L5V, A10E, V97T
light: B3 light
B14: 1.32.36-1 (antibody, human IgG1, kappa)
heavy: B3 heavy with L5V, A10E, S105T
light: B3 light
B15: 1.33.36-1 (antibody, human IgG1, kappa)
heavy: B3 heavy with L5V, A10E, T12K, E23K, S69T, V97T
light: B3 light
B16: 1.4.1-1 (antibody, human IgG1, kappa)
heavy: B3 heavy with L5V
light: B4 light
B17: 1.5.1-1 (antibody, human IgG1, kappa)
heavy: B3 heavy with L5V, E23K
light: B4 light
B18: Antibody A-1 (antibody, human IgG1, kappa)
heavy: B3 heavy
light: B4 light
B19: 1.35.36-1 (antibody, human IgG1, kappa)
heavy: QVQLVQSGAEVKKPGASVRVSCKASGYNIRDYFMHWWRQAPGQGLQWVGWINPKTGQPNNPRQFQGRVTMTRHASWDFDTFSFYMDLSRLRSDDTATYFCARQRTDYWDFDVWGQGTMVTVSSASTKGPSVFPLAPSSKSTSGGTAALGCLVKDYFPEPVTVSWNSGALTSGVHTFPAVLQSSGLYSLSSVVTVPSSSLGTQTYICNVNHKPSNTKVDKKVEPKSCDKTHTCPPCPAPELLAGPDVFLFPPKPKDTLMISRTPEVTCVVVDVSHEDPEVKFNWYVDGVEVHNAKTKPREEQYNSTYRVVSVLTVLHQDWLNGKEYKCKVSNKALPLPEEKTISKAKGQPREPQVYTLPPSREEMTKNQVSLTCLVKGFYPSDIAVEWESNGQPENNYKTTPPVLDSDGSFFLYSKLTVDKSRWQQGNVFSCSVLHEALHSHYTQKSLSLSPGK
light: B3 light
B20: 1.36.36-1 (antibody, human IgG1, kappa)
heavy: B19 heavy with F83A
light: B3 light
B21: 1.2.2-1 (antibody, human IgG1)
heavy: B3 heavy with A10E, T12K, Q118M
VL: DIQMTQSPSSLSASVGDTVTITCQANGYLNWYQQKPGKAPKLLIYDGSKLERGVPSRFSGRRWGQEYNLTINNLQPEDIATYFCQVYEFVVPGTKVDIK

Key:
HIV gp120 Bal = HIV gp120 Bal (HIV); assay: single-point ELISA; further: test concentration or dose not given here
HIV gp120 CAAN = HIV gp120 CAAN (HIV); assay: single-point ELISA; further: test concentration or dose not given here

Binder | ELISA (A450) (HIV gp120 Bal) | ELISA (A450) (HIV gp120 CAAN)
B1 | 0.88 | 0.67
B2 | 0.89 | 0.36
B3 | 0.93 | 0.88
B4 | 0.86 | 0.9
B5 | 0.93 | 0.75
B6 | 1.08 | 0.98
B7 | 0.94 | 0.71
B8 | 0.95 | 0.94
B9 | 0.97 | 0.94
B10 | 0.95 | 0.9
B11 | 0.93 | 1.01
B12 | 0.98 | 1.04
B13 | 1.06 | 0.9
B14 | 0.92 | 0.64
B15 | 0.94 | 0.82
B16 | 1.04 | 0.96
B17 | 0.92 | 1.07
B18 | 0.91 | 1.06
B19 | 0.85 | 0.67
B20 | 1.12 | 0.34
B21 | 0.91 | 0.8
